For the assay, the target named is Human IL33-his (Human IL33 (NP_254274.1) Ser112-Thr270 with a C-terminal 6-histidine tag, expressed in E. coli) (human) (UniProt O95760). Kind of assay: cell-based or functional assay.
UniProt O95760, sequence (O95760 other isoform, or with tags, fused parts or gaps limits assumed, form in doubt): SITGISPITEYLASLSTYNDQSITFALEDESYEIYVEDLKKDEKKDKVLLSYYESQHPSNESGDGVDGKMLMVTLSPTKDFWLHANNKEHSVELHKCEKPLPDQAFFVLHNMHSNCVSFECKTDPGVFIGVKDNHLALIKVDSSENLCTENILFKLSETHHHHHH

Regarding 对照抗体 ANB020 (antibody), the IC50 of inhibition of IL-5 production by KU812 cells stimulated with IL33 was determined as 0.51 µg/mL.

(Values after patent CN111378037A.)
